Assay results from patent publication US7977317B2, “Compositions and methods for modulating blood-brain barrier transport” (Raptor Pharmaceutical Inc., priority 2001, dated 2011).

How the values were obtained:
BBCEC monolayers = test: Transcytosis across BBCEC monolayers (in vitro BBB model); type: cell-based, bovine
Description: FIG. 10 assesses the ability of several agents to interfere with p97 transyctosis. FIG. 10a, transcytosis of I125-P97 was compared in the presence of cold p97 (5 micromolar), Lf (5 micromolar), and Tf (5 micromolar). […] FIG. 10c, RAP, a known poly-peptide inhibitor of the LDL-Receptor family was applied to the cells (25 micrograms/ml).
(§1) FIG. 11 examines the accumulation and transcytosis of p97. FIG. 11a, of [^125I]-p97, [^125I]-BSA and [^125I]-holo-transferrin one hour after i.v. injection. The radioactivity in brain was compared between the three compounds. (n=3); FIG. 11b, Accumulation of p97 and transferrin into the mouse brain parenchyma. In situ brain perfusion was performed with human [^125I]-p97 or [^125I]-holo-transferrin at a final concentration of 10 nM via a catheter inserted in the right common carotid artery. The volume of distribution (VD) of [^125I]-proteins were obtained in the whole brain homogenate (white bars), in brain capillaries (solid bars) and in brain parenchyma (hatched bars) after isolation of the right hemisphere and capillary depletion. Results were obtained for p97 (n=10) and for holo-transferrin (n=6); FIG. 11c, Transcytosis of p97 across BBCEC monolayers. Transcytosis experiments were performed 37° C. (open circles) and 4° C. (closed circles) with BBCEC monolayers. [^125I]-p97 (1 mg/ml) was added to the upper side of the cell-covered filter. One representative experiment is shown (n=4); FIG. 11d, Preferential transport of p97 across the BBCEC monolayers. Apical-to-basal and basal-to-apical transport of [^125I]-p97 (25 nM) was measured for 2 hrs at 37° C. At the end of the experiment, [^125I]-p97 was assessed in the lower or upper chambers of each well by TCA precipitation (n=4).
FIG. 13 illustrates the transcytosis and accumulation of p97 and transferrin in BBCEC monolayers. FIG. 13a, Transcytosis experiments were performed at 37° C. (solid bars) or 4° C. (white bars). [^125I]-p97 or bovine [^125I]-holo-transferrin (1 mg/ml) was added to the upper side of the cell-covered filter. At the end of the experiment, radiolabelled proteins were measured in the lower chamber of each well by TCA precipitation (n=4). Controls were also performed at 37° C. with denatured [^125I]-p97 or bovine [^125I]-holo-transferrin boiled for 30 min (grey bars) (n=2); FIG. 13b, Biospecific interaction analysis was performed with native or boiled p97 for the indicated times. MAb L235 (5 μg) was immobilized on a sensor chip (SM5) using standard procedures incorporating NHS, EDC and ethanolamine. Native and boiled p97 (5 to 30 min) diluted at 1 mg/ml in Ringer/Hepes was cooled and injected into the BIAcore. The surface plasmon resonance response obtained for native p97 and boiled p97 was plotted (in relative units (RU)) as a function of time; FIG. 13c, The accumulation of both proteins into BBEC cells were also measured. Briefly, after incubation at 37° C. (solid bars) or 4° C. (white bars) with either [^125I]-protein, cells were washed four times with cold PBS. Accumulation of both denatured proteins (grey bars) was also measured at 37° C. Filters were then removed, and the radioactivity associated with the cells was quantified (n=3).
FIG. 14 illustrates the stability of p97 and integrity of the BBCEC monolayers following p97 transcytosis. FIG. 14a, Transcytosis experiments were performed at 37° C. and 4° C. by adding p97 (1 mg/ml) to the upper compartment. At the end of the experiment, 50 μl from each lower chamber was used for SDS-polyacrylamide gel electrophoresis. After electrophoresis, the gels were stained with Coomassie Blue. A standard curve was also made with known amounts of recombinant p97 (0-2 μg); FIG. 14b. The gels were dried and scanned to quantify the amount of intact p97 that crossed the BBCEC monolayers at 37° C. and 4° C. (n=3); FIG. 14c, Effect of p97 on sucrose permeability of BBCE cell monolayers co-cultured with astrocytes. […]

[1] = Brain uptake one hour after i.v. injection; type: in vivo; conditions: mice, one hour after i.v. injection of [125I]-protein (FIG. 11a)
Method: as §1, with “[^125I]-p97 (1 mg/ml) was added to the upper side of the cell-covered filter. One representative experiment is shown (n=4); FIG. 11d, Preferential transport of p97 across the BBCEC monolayers.” left out
(§2) A. Brain uptake and in situ brain perfusion. […] The serum and brain samples were collected and the levels of radioactivity were measured. […]

[2] = In situ brain perfusion with capillary depletion; type: in vivo; conditions: mice, 10 min perfusion, 10 nM [125I]-protein (FIG. 11b)
Method: as §1, with “[^125I]-p97 (1 mg/ml) was added to the upper side of the cell-covered filter. One representative experiment is shown (n=4); FIG. 11d, Preferential transport of p97 across the BBCEC monolayers.” left out
as §2

Q: With “transferrin: transferrin (Tf), iron-binding serum protein used as comparator and competitor” as the substance, how does the “Effect of heat-denaturation on passage through BBCEC monolayers” value (BBCEC monolayers; boiled 30 min, 37° C. (FIG. 13a)) read?
A: reduced the passage

Q: What about the “Effect on transcytosis of 125I-p97” value (BBCEC monolayers; competitor 5 micromolar (FIG. 10a, 10b)) of the same substance?
A: only the cold p97 successfully reduced

Q: And the Brain/serum ratio [1]?
A: 0.008

Q: What about the “Apparent VD in the brain parenchyma” value [2] of the same substance?
A: 2.4 ml/100 g
